Data published in patent publication US20240018260A1 (AMUNIX PHARMACEUTICALS, published 2024).

Columns and labels:
[1] = target: T1, human EpCAM on EpCAM positive human carcinoma cells (SW480, SK-OV-3) (human, UniProt P16422 24-314); test: cell-based or functional assay
T1 sequence (looked up): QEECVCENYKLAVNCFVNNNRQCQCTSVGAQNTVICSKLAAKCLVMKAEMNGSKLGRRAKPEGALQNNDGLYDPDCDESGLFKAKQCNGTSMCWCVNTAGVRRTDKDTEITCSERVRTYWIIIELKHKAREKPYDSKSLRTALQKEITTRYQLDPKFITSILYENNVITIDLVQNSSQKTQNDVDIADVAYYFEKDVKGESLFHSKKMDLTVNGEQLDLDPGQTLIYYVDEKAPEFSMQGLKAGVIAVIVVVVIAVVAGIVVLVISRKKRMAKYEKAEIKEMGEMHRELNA

[2] = target: human CD3 on purified human CD3 positive T cells (human, UniProt P07766 23-207); test: cell-based or functional assay
recombinant human CEA = target: T2, recombinant human CEA (human, UniProt P06731 35-685, limits assumed); test: sandwich ELISA: antigen coated on plate, detection with biotin-conjugated protein L
T2 construct: Coated on the ELISA plate; also called CEA antigen
T2 sequence (looked up): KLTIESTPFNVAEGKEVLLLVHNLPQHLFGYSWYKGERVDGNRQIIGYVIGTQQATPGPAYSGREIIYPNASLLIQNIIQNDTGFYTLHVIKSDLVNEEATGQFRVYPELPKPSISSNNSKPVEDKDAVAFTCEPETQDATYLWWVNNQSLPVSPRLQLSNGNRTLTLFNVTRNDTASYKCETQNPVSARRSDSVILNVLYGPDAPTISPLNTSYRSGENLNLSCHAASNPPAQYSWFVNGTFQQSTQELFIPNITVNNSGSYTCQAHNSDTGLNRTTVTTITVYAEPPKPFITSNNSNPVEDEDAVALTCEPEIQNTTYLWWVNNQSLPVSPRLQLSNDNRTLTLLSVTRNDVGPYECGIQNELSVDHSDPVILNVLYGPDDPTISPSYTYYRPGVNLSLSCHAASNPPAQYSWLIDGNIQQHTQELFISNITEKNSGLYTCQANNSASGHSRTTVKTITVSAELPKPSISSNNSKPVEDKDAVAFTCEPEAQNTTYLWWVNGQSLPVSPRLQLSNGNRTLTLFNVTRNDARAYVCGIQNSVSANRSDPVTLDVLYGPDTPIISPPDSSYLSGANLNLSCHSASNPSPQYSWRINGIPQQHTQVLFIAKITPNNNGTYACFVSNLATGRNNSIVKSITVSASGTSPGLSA
Procedure: (§1) The binding specificity of an anti-EpCAM×anti-CD3 ProTIA (e.g. AC1476) was evaluated in conjunction with the control ProTIA compositions anti-CEA×anti-CD3 ProTIA (e.g. AC1432) and anti-HER2×anti-CD3 ProTIA (e.g. AC1408), in a target antigen/biotin-conjugated protein-L sandwich ELISA. Both the anti-CEA×anti-CD3 ProTIA (AC1432) and the anti-HER2×anti-CD3 ProTIA (AC1408) bear the same anti-CD3 scFv component as the anti-EpCAM×anti-CD3 ProTIA (AC1476) albeit with different targeting component. In the ELISA binding assay, recombinant human EpCAM (rhEpCAM) (R&D Systems cat #960-EP-50), recombinant human CEA (Abcam cat #ab742) and recombinant human HER2 (AcroBiosystems cat #HE2-H525) were coated on a 96-well, flat-bottomed plate at a concentration of 0.1 microg/100 microL. After overnight incubation at 4° C., the assay plate was washed and blocked with 3% bovine serum albumin (BSA) for 1 h at room temperature. The plate was washed again followed by the introduction of a dose range (0.0007 to 0.5 nM, achieved with a 1:3 fold serial dilution scheme from a starting concentration of 0.5 nM) of protease-treated anti-EpCAM×anti-CD3 ProTIA (e.g. AC1476) to EpCAM-coated wells, CEA-coated wells and HER2-coated wells. […] After desired color intensity was reached, 0.2 N sulfuric acid was added to stop the reaction and absorbance (OD) was measured at 450 nm using a spectrophotometer. […]

recombinant human HER2 = target: T3, recombinant human HER2 (human, UniProt P04626 23-652); test: as above
T3 construct: Coated on the ELISA plate; also called HER2 antigen
Procedure: as §1

[3] = target: T4, recombinant human EpCAM (rhEpCAM) (human, UniProt P16422 24-265); test: sandwich ELISA: rhEpCAM coated on plate, detection with biotin-conjugated protein L
T4 construct: Bought recombinant protein coated on the ELISA plate
T4 sequence (looked up): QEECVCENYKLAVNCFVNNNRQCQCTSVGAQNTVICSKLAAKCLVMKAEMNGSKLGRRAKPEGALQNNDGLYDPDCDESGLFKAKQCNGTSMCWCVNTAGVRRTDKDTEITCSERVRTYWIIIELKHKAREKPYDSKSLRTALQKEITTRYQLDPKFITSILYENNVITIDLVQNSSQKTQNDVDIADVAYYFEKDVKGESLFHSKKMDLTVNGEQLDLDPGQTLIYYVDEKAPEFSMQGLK
Procedure: as §1

[4] = target: T5, recombinant human CD3 (rhCD3εδ) (human, UniProt P07766 23-126; P04234 22-105); test: sandwich ELISA: rhCD3εδ coated on plate, detection with peroxidase-conjugated protein L
T5 chain: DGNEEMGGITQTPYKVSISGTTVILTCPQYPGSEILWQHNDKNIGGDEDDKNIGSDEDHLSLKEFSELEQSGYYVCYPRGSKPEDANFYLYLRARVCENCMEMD

[5] = target: T4, recombinant human EpCAM (rhEpCAM); test: sandwich ELISA: rhEpCAM coated on plate, detection with peroxidase-conjugated protein L
Procedure: The binding capability of anti-EpCAM×anti-CD3 ProTIA composition was verified with an EpCAM/peroxidase-conjugated protein-L sandwich ELISA. In the ELISA binding assay, recombinant human EpCAM (rhEpCAM) (Sino BiologicalR&D Systems cat #10694-H08H960-EP-50) was coated on a 96-well, flat-bottomed plate at a concentration of 0.1 microg/100 microL. After overnight incubation at 4° C., the assay plate was washed and blocked with 3% bovine serum albumin (BSA) for 1 h at room temperature. The plate was washed again followed by the introduction of a dose range of non-cleavable anti-EpCAM×anti-CD3 ProTIA (i.e., a ProTIA without the release segment cleavage sequence and AC1484, a ProTIA chimeric polypeptide assembly composition) and protease-treated and protease-untreated anti-EpCAM×anti-CD3 ProTIA (e.g. AC1476). The dose range utilized for non-cleavable and protease-treated and untreated ProTIA was 0.0006 to 5 nM, achieved with a 1:6 fold serial dilution scheme from a starting concentration of 5 nM. The plate was allowed to incubate with shaking for 1 h at room temperature to allow the non-cleavable, protease-cleaved and uncleaved ProTIA to bind to the rhEpCAM coated on the plate. Unbound components were removed with a wash step and a peroxidase-conjugated protein L (PierceThermoFisher Scientific cat #32420) was added. After an appropriate incubation period that allowed protein-L to bind to the kappa light of the scFvs, any unbound reagent was removed by a wash step followed by the addition of tetramethylbenzidine (TMB) substrate to each well. TMB is a chromogenic substrate of peroxidase. After desired color intensity was reached, 0.2 N sulfuric acid was added to stop the reaction and absorbance (OD) was measured at 450 nm using a spectrophotometer. The intensity of the color is proportional to the concentration of non-cleavable, protease-treated and untreated anti-EpCAM×anti-CD3 ProTIA captured by the rhEpCAM/protein-L sandwich ELISA. The intensity of the color produced (measured OD) was plotted against protein concentration; and the concentration of non-cleavable, protease-cleaved and uncleaved anti-EpCAM×anti-CD3 ProTIA that gave half-maximal response (EC₅₀) was derived with a 4-parameter logistic regression equation using GraphPad prism software.

B1: Protease-treated (MMP-9 cleaved) AC1476 anti-EpCAM×anti-CD3 ProTIA, released aEpCAM-aCD3 first portion (bispecific antibody)
chain: DIQMTQSPSSLSASVGDRVTITCRSTKSLLHSNGITYLYWYQQKPGKAPKLLIYQMSNLASGVPSRFSSSGSGTDFTLTISSLQPEDFATYYCAQNLEIPRTFGQGTKVEIKGATPPETGAETESPGETTGGSAESEPPGEGQVQLVQSGPGLVQPGGSVRISCAASGYTFTNYGMNWVKQAPGKGLEWMGWINTYTGESTYADSFKGRFTFSLDTSASAAYLQINSLRAEDTAVYYCARFAIKGDYWGQGTLLTVSSGGGGSDIQMTQSPSSLSASVGDRVTITCRASQDIRNYLNWYQQKPGKAPKLLIYYTSRLESGVPSRFSGSGSGTDYTLTISSLQPEDFATYYCQQGNTLPWTFGQGTKVEIKGATPPETGAETESPGETTGGSAESEPPGEGEVQLVESGGGLVQPGGSLRLSCAASGYSFTGYTMNWVRQAPGKGLEWVALINPYKGVSTYNQKFKDRFTISVDKSKNTAYLQMNSLRAEDTAVYYCARSGYYGDSDWYFDVWGQGTLVTVSSGTAEAASASGLSGRSDNHSPLG
notes: ESI-MS found 58,071 Da against a theoretical 58,067 Da; also called ProTIA-A; protease-treated anti-EpCAM×anti-CD3 ProTIA
B1 was tested, and the “EC50, LDH release cytotoxicity, PBMC:SK-OV-3 5:1” value [1] was 3 pM, the “EC50, LDH release cytotoxicity, purified human CD3 positive T cells:OVCAR-3 5:1” value [2] was 0.3 pM and the “EC50, LDH release cytotoxicity, purified human CD3 positive T cells:SK-OV-3 5:1” value [2] was 2.4 pM. The binding result (recombinant human CEA) was “no binding (tested: 0.0007 to 0.5 nM (dose range tested))”, the binding result (recombinant human HER2) was “no binding (tested: 0.0007 to 0.5 nM (dose range tested))” and the EC50 [3] was 110 pM. The EC50 [4] was 310 pM and the EC50 [5] was 120 pM.
